Source: PMC8406323, “Cellular 5′-3′ mRNA Exoribonuclease XRN1 Inhibits Interferon Beta Activation and Facilitates Influenza A Virus Replication” (mBio, 2021)

Target: T1, GST-XRN1-C-terminal region (aa 1174–1706) fusion protein (human, UniProt Q8IZH2 1174-1706)
T1 construct: XRN1, human, C-terminal region aa 1174-1706 (vector pGEX-6P); Held on glutathione beads in the pull-down; also called GST-tagged-XRN1 (aa 1174–1706); source: E. coli BL21(DE3), purified (glutathione Sepharose 4B)
T1 sequence: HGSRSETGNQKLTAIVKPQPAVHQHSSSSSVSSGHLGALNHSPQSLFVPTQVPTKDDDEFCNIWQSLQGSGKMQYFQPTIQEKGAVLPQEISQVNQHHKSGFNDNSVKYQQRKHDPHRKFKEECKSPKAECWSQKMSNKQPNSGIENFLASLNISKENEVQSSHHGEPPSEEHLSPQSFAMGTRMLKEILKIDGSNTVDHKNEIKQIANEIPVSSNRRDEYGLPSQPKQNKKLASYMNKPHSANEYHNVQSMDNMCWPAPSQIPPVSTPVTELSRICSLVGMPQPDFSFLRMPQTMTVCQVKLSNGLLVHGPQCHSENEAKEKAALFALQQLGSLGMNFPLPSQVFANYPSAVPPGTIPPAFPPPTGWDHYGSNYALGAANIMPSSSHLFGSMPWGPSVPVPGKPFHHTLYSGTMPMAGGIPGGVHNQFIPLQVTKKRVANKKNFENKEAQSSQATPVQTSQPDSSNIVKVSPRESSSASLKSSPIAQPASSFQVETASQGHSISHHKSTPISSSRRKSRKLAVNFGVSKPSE
Experiment: pull-down
Settings: both partners purified

B1: His-NS1 from PR8 (natural protein)
chain: MDPNTVSSFQVDCFLWHVRKRVADQELGDAPFLDRLRRDQKSLRGRGSTLGLDIETATRAGKQIVERILKEESDEALKMTMASVPASRYLTDMTLEEMSRDWSMLIPKQKVAGPLCIRMDQAIMDKNIILKANFSVIFDRLETLILLRAFTEEGAIVGEISPLPSLPGHTAEDVKNAVGVLIGGLEWNDNTVRVSETLQRFAWRSSNENGRPPLTPKQKREMAGTIRSEV
notes: also called His-tagged NS1; recombinant NS1
B1: binds.
